Results taken from patent US20110142849A1 (IRM, published 2011).

Key:
Assay in all cases: specificity ELISA on coated antigen (88 ng per well), antibody at 2 µg/mL, ABS650
hβ-Klotho = target: T1, hβ-Klotho (human, UniProt Q86Z14)
T1 construct: panel antigen of the specificity ELISA
T1 sequence (antigen, looked up): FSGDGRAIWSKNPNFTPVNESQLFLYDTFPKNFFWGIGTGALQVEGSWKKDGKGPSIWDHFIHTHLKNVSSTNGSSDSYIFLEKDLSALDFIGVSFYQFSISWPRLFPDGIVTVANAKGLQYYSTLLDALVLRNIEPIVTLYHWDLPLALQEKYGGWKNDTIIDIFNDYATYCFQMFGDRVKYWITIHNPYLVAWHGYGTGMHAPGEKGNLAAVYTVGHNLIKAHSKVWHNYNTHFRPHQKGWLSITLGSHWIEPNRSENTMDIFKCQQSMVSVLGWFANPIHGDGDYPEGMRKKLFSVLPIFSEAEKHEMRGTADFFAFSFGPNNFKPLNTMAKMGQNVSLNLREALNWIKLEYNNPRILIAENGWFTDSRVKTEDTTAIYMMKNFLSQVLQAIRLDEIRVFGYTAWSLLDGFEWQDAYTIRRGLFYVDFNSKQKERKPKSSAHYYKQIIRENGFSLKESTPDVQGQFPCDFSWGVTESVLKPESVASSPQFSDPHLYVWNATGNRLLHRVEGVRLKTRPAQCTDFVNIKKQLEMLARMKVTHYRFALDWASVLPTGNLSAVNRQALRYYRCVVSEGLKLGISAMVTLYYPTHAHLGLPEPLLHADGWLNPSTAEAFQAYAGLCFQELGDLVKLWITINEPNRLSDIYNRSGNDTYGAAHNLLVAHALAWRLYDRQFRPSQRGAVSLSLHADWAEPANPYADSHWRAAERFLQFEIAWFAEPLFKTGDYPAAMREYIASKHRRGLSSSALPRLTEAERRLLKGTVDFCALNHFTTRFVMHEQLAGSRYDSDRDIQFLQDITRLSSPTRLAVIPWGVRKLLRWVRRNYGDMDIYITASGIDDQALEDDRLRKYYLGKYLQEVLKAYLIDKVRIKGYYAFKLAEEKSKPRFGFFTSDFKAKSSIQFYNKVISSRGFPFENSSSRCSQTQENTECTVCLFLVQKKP
Method: (§1) For specificity ELISAs on purified human and mouse IgGs, a 384-well plate was coated with a panel of purified human or mouse antigens at 88 ng per well and incubated overnight at 4° C. The plate was blocked and washed as described above, then 22 μL of purified mouse or human anti-PCSK9 antibody diluted to 2 μg/mL in PBS was added to each well. The plate was incubated for 1 hr at 37° C. then washed with PBST. Anti-mouse Fc antibody (Jackson ImmunoResearch Labs #115-035-071) or anti-human kappa antibody (Sigma #A7164) conjugated to HRP was diluted 1:5000 in PBS (25 μL) and added to each well. The plate was incubated for 1 hr at room temperature, then washed and developed as described above.
(§2) In order to test whether the antigen specificity of the parental mouse antibody LFU720 was retained in the final Humaneered™ IgGs, LGT209, LGT210 and LGT211, binding of the antibodies to a panel of human and mouse antigens (as well as human PCSK9) was tested in an ELISA assay.

hDDR1 = target: T2, hDDR1 (human, UniProt Q08345)
T2 construct: panel antigen of the specificity ELISA
Method: as §1, §2

hGITR = target: T3, hGITR (human, UniProt Q9Y5U5)
T3 construct: panel antigen of the specificity ELISA
T3 sequence (antigen, looked up): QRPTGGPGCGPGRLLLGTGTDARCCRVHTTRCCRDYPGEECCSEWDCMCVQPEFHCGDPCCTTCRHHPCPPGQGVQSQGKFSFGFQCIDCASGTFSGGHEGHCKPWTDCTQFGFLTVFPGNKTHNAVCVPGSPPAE
Method: as §1, §2

hIL-12RB1 = target: T4, hIL-12RB1 (human, UniProt P42701)
T4 construct: panel antigen of the specificity ELISA
Method: as §1, §2

hTrkB = target: T5, hTrkB (human, UniProt Q16620)
T5 construct: panel antigen of the specificity ELISA
Method: as §1, §2

hNotch-3 NRR = target: T6, hNotch-3 NRR (human, UniProt Q9UM47)
T6 construct: panel antigen of the specificity ELISA
T6 sequence (antigen, looked up): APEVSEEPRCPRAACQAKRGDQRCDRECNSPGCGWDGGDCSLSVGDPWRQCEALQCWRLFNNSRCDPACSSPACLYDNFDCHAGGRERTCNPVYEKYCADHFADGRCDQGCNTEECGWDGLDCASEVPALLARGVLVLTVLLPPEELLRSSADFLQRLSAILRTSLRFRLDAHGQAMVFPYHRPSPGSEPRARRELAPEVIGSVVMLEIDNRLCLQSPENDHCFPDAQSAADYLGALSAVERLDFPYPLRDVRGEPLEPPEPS
Method: as §1, §2

hAgr2 = target: T7, hAgr2 (human, UniProt O95994)
T7 construct: panel antigen of the specificity ELISA
T7 sequence (antigen, looked up): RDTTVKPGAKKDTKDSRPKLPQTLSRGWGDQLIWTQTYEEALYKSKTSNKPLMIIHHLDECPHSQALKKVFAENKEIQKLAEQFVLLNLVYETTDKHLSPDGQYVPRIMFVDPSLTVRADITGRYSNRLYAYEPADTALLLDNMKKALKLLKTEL
Method: as §1, §2

hFGFR4 = target: T8, hFGFR4 (human, UniProt P22455)
T8 construct: panel antigen of the specificity ELISA
T8 sequence (antigen, looked up): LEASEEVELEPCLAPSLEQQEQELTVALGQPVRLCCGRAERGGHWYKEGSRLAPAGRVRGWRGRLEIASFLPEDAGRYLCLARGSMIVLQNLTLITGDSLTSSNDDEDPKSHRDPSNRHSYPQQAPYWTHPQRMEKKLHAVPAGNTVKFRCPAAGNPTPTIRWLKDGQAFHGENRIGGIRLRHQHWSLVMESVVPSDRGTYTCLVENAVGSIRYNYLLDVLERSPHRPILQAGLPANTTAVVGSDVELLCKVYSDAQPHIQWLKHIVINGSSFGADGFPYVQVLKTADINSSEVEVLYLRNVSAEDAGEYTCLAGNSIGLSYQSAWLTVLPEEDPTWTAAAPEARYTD
Method: as §1, §2

Measured: binding result

T2 sequence (Q08345 21-416 limits assumed): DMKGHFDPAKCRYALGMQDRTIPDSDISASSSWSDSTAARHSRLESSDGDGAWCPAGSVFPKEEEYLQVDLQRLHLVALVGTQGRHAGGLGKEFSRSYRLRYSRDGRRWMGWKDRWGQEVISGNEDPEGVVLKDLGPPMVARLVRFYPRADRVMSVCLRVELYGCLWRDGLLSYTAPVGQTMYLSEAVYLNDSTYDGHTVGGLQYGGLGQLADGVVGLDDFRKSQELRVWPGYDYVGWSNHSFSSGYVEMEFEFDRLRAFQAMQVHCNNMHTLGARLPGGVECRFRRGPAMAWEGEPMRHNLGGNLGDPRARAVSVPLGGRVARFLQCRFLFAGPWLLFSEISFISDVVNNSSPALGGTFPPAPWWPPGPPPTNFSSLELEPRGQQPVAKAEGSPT
T5 sequence (Q16620 32-430 limits assumed): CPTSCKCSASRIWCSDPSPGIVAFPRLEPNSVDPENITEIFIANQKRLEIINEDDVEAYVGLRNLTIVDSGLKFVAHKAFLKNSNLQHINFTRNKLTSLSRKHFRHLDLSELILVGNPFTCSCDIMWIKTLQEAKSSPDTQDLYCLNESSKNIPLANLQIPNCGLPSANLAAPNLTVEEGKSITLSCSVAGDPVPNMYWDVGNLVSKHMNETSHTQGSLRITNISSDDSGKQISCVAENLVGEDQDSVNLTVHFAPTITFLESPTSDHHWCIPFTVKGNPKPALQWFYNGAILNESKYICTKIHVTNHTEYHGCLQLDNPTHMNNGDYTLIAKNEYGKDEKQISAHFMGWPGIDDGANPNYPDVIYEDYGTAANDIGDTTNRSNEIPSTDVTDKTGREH

B1: NVP-LFU720 (antibody, V domains shown)
VH: EVQLQQSGAELMKPGASVKLSCTASGFNIKDMYMSWVRQRPEQGLEWIGRIDPANGHTNYDPKFQAKATITTDTSSKTAYLHLSSLTSEDTAVYYCARSYYYYAMDYWGQGTSVTVSS
VL: QIVLTQSPAIMSASPGEKVTMTCSASSSVSYMHWYQQKPGSSPRLWIYLTFNLASGVPARFSGSGSGTSYSLSISSMEAEDAATYYCLQWSSDPPTFGSGTKLEIK
notes: Murine anti-human Pcsk9 IgG1-kappa monoclonal antibody from a hybridoma; also called 5P20; NVP-LFU720-AX-1
no binding (tested: 2 µg/mL): all assays above

B2: NVP-LGT211 (antibody, human IgG1, V domains shown)
VH: QVQLVQSGAEVKKPGASVKVSCKASGYTFSTMYMSWVRQAPGQGLEWMGRIDPANEHTNYAQKFQGRVTMTRDTSISTAYMELSRLTSDDTAVYYCARSYYYYAMDYWGQGTLVTVSS
VL: QIVLTQSPATLSVSPGERATLSCRASQSVSYMHWYQQKPGQAPRLLIYGVFRRATGIPDRFSGSGSGTDFTLTIGRLEPEDFAVYYCLQWSSDPPTFGQGTKLEIKR
notes: Silent human IgG1 kappa; also called pSR74 (Vh) + pJG10 (Vk); pSR074 + pJG10
no binding (tested: 2 µg/mL): all assays above
